Reference: publication PMC9396398, “Crystal structure of Ankyrin-G in complex with a fragment of Neurofascin reveals binding mechanisms required for integrity of the axon initial segment” (The Journal of Biological Chemistry, 2022)

T1: AnkG ANK repeats (residues 38-855, R1-24) (UniProt O70511 38-855)
T1 chain: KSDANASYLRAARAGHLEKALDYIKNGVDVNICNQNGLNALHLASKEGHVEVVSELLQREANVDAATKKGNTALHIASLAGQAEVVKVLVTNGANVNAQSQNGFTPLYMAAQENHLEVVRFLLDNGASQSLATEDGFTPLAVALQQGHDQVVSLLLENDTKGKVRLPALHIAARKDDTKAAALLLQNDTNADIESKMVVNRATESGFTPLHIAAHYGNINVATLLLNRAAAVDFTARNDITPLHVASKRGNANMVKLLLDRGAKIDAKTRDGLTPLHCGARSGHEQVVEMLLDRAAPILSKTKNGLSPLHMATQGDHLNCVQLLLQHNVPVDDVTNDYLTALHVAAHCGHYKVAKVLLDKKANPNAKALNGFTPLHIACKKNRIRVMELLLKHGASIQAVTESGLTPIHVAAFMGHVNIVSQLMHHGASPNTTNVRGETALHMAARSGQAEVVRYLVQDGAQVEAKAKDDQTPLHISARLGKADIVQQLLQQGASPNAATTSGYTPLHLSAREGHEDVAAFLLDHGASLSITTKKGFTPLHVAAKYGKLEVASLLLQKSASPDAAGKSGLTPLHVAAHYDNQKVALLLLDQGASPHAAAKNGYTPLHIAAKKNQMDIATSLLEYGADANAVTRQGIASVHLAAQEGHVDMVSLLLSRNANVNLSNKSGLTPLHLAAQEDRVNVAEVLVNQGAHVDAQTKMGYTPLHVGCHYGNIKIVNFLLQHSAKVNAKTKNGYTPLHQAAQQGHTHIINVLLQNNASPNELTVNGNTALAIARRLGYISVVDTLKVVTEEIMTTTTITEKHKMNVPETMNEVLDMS

T2: AnkG ANK repeats (residues 38-855, R1-24) (UniProt O70511 38-855)
T2 construct: Ankyrin-G (AnkG), ANK repeats R1-24, residues 38-855; In human Q12955 the same residues seem to stand 8 lower (I277 here = I269 there); Cloned into a modified pET32a vector; the tag is said to be removed only for the crystallisation proteins; also called AnkG R1-24; Ankyrin-G ankyrin repeats; source: E. coli BL21 (DE3), purified (Ni-NTA, size-exclusion chromatography)
T2 sequence (looked up): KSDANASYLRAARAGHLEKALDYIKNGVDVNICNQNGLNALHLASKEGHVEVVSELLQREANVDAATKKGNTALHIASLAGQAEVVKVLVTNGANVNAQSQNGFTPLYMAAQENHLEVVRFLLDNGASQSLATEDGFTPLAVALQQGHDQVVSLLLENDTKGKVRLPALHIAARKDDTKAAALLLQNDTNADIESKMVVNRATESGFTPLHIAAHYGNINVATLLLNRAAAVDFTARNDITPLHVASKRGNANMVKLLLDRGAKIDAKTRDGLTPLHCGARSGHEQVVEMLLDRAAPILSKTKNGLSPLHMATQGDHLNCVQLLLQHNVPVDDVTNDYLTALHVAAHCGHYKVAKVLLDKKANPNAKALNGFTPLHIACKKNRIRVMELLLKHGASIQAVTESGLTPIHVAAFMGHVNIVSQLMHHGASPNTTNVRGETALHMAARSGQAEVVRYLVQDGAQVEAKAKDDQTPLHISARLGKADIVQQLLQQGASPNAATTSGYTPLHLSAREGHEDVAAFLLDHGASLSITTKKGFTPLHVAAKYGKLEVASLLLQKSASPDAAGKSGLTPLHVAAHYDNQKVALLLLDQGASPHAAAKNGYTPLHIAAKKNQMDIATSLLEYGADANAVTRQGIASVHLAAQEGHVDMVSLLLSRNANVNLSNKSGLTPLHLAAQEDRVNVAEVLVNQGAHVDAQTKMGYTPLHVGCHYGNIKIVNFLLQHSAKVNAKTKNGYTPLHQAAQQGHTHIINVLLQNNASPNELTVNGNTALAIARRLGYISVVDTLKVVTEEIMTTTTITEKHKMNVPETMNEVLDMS


Target: T1, AnkG ANK repeats (residues 38-855, …)
Experiment: ITC
Conditions: not given

| Kd | Binder |
| --- | --- |
| 700 nM | NrCAM (domain or fragment) RRNKGGKYPVKEKEDAHADPEIQPMKEDDGTFGEYSDAEDHKPLKKGSRTPSDRTVKKEDSDDSLVDYGEGVNGQFNEDGSFIGQYSGKKEKEPAEGNESSEAPSPVNAMNSFV |
| 900 nM | CHL1 (domain or fragment) IEIPSSVQQVPTIIKQSKVQVAFPFDEYFQIECEAKGNPEPTFSWTKDGNPFYFTDHRIIPSNNSGTFRIPNEGHISHFQGKYRCFASNKLGIAMSEEIEFIVPSVPKFPKEKIDPLEVEEGDPIVLPCNPPKGLPPLHIYWMNIELEHIEQDERVYMSQKGDLYFANVEEKDSRNDYCCFAAFPRLRTIVQKMPMKLTVNSSNSIKQRKPKLLLPPTESGSESSITILKGEILLLECFAEGLPTPQVDWNKIGGDLPKGRETKENYGKTLKIENVSYQDKGNYRCTASNFLGTATHDFHVIVEEPPRWTKKPQSAVYSTGSNGILLCEAEGEPQPTIKWRVNGSPVDNHPFAGDVVFPREISFTNLQPNHTAVYQCEASNVHGTILANANIDVVDVRPLIQTKDGENYATVVGYSAFLHCEFFASPEAVVSWQKVEEVKPLEGRRYHIYENGTLQINRTTEEDAGSYSCWVENAIGKTAVTANLDIRNATKLRVSPKNPRIPKLHMLELHCESKCDSHLKHSLKLSWSKDGEAFEINGTEDGRIIIDGANLTISNVTLEDQGIYCCSAHTALDSAADITQVTVLDVPDPPENLHLSERQNRSVRLTWEAGADHNSNISEYIVEFEGNKEEPGRWEELTRVQGKKTTVILPLAPFVRYQFRVIAVNEVGRSQPSQPSDHHETPPAAPDRNPQNIRVQASQPKEMIIKWEPLKSMEQNGPGLEYRVTWKPQGAPVEWEEETVTNHTLRVMTPAVYAPYDVKVQAINQLGSGPDPQSVTLYSGEDYPDTAPVIHGVDVINSTLVKVTWSTVPKDRVHGRLKGYQINWWKTKSLLDGRTHPKEVNILRFSGQRNSGMVPSLDAFSEFHLTVLAYNSKGAGPESEPYIFQTPEGVPEQPTFLKVIKVDKDTATLSWGLPKKLNGNLTGYLLQYQIINDTYEIGELNDINITTPSKPSWHLSNLNATTKYKFYLRACTSQGCGKPITEESSTLGEGSKGIGKISGVNLTQKTHPIEVFEPGAEHIVRLMTKNWGDNDSIFQDVIETRGREYAGLYDDISTQGWFIGLMCAIALLTLLLLTVCFVKRNRGGKYSVKEKEDLHPDPEIQSVKDETFGEYSDSDEKPLKGSLRSLNRDMQPTESADSLVEYGEGDHGLFSEDGSFIGAYAGSKEKGSVESNGSSTATFPLRA |
| 1100 nM | SDDSLADYGGSVDVQFNEDGSFIGQYSG (domain or fragment) [L1CAM (construct of the ITC assay)] |

Target: T2, AnkG ANK repeats (residues 38-855, …)
Experiment: ITC; VP-ITC at 25 °C; 50 mM Tris, 100 mM NaCl, 1 mM EDTA, 1 mM DTT, pH 7.8; Nfasc proteins (200 μM) in the syringe, AnkG proteins (20 μM) in the cell; one-site binding model
Conditions: both partners purified

| fold decrease in binding affinity against Nfasc 1198 to 1214 WT | fold decrease in binding against Nfasc 1198 to 1214 WT | Binder |
| --- | --- | --- |
| ~27 fold | – | GEGQFNADGSFIGQYTV (domain or fragment, UniProt P97685 1198-1214, looked up, source: E. coli BL21 (DE3), purified (Ni-NTA, size-exclusion chromatography)) [Nfasc 1198 to 1214 E1204A] |
| – | > 20 fold | GEGQQNEDGSFIGQYTV (domain or fragment, UniProt P97685 1198-1214, looked up, source: E. coli BL21 (DE3), purified (Ni-NTA, size-exclusion chromatography)) [Nfasc 1198 to 1214 F1202Q] |
| – | ~9 fold | GEGQFNEDGSFIGQETV (domain or fragment, UniProt P97685 1198-1214, looked up, also called Y1212E phosphorylation mimic variant; source: E. coli BL21 (DE3), purified (Ni-NTA, size-exclusion chromatography)) [Nfasc 1198 to 1214 Y1212E] |

Target: T1, AnkG ANK repeats (residues 38-855, …)
Experiment: ITC
Conditions: not given
Remark: another data set of the same source

| Kd | Binder |
| --- | --- |
| 340 nM | GEGQFNEDGSFIGQYTV (domain or fragment) [Nfasc 1198 to 1214 WT] |
| 930 nM | full-length Nfasc cytoplasmic tail (residues 1132-1240) (domain or fragment) KRSRGGKYPVREKKDVPLGPEDPKEEDGSFDYSDEDNKPLQGSQTSLDGTIKQQESDDSLVDYGEGGEGQFNEDGSFIGQYTVRKDKEETEGNESSEATSPVNAIYSLA |

Target: T1, AnkG ANK repeats (residues 38-855, …)
Experiment: ITC
Conditions: not given
Remark: another data set of the same source

| Kd | Binder |
| --- | --- |
| 260 nM | GEGQFAEDGSFIGQYTV [Nfasc 1198-1214 N1203A] |
| 460 nM | GEGQFNEDGSFIGQYAV [Nfasc 1198-1214 T1213A] |
| 1000 nM | GEGQFNEDGSFQGQYTV (domain or fragment) [Nfasc 1198 to 1214 I1209Q] |
| 1200 nM | GEGQFNEDGAFIGQYTV [Nfasc 1198-1214 S1207A] |
| 1300 nM | GEGQFNEAGSFIGQYTV (domain or fragment) [Nfasc 1198 to 1214 D1205A] |
| 7700 nM | GEGQFNEKGSFIGQYTV (domain or fragment) [Nfasc 1198 to 1214 D1205K] |
| 1400 nM | GEGQFNEDGSQIGQYTV (domain or fragment) [Nfasc 1198 to 1214 F1208Q] |
| 9200 nM | GEGQFNADGSFIGQYTV (domain or fragment, UniProt P97685 1198-1214, looked up, source: E. coli BL21 (DE3), purified (Ni-NTA, size-exclusion chromatography)) [Nfasc 1198 to 1214 E1204A] |
| 7100 nM | GEGQQNEDGSFIGQYTV (domain or fragment, UniProt P97685 1198-1214, looked up, source: E. coli BL21 (DE3), purified (Ni-NTA, size-exclusion chromatography)) [Nfasc 1198 to 1214 F1202Q] |
| 3200 nM | GEGQFNEDGSFIGQETV (domain or fragment, UniProt P97685 1198-1214, looked up, also called Y1212E phosphorylation mimic variant; source: E. coli BL21 (DE3), purified (Ni-NTA, size-exclusion chromatography)) [Nfasc 1198 to 1214 Y1212E] |
